Positions count from the first letter of the chain named. In names and notes the source's numbering stands.
B1: BimL-dCTS, Alexa568-labelled (domain or fragment)
chain: MAKQPSDVSSECDREGGQLQPAERPPQLRPGAPTSLQTEPCDRSPAPMSCDKSTQTPSPPCQAFNHYLSAMASIRQSQEEPEDLRPEIRIAQELRRIGDEFNETYTRRVFANDYREAEDHP
modifications: Alexa568 on a single cysteine
B2: BimL single-cysteine mutant 41C, Alexa568-labelled (natural protein)
chain: MAKQPSDVSSECDREGGQLQPAERPPQLRPGAPTSLQTEPCDRSPAPMSCDKSTQTPSPPCQAFNHYLSAMASIRQSQEEPEDLRPEIRIAQELRRIGDEFNETYTRRVFANDYREAEDHPQMVILQLLRFIFRLVWRRH
modifications: Alexa 568-maleimide on the single cysteine at 41
B3: Venus-BimEL (natural protein, mouse, UniProt O54918-1 1-196, looked up)
chain: MAKQPSDVSSECDREGGQLQPAERPPQLRPGAPTSLQTEPQGNPDGEGDRCPHGSPQGPLAPPASPGPFATRSPLFIFVRRSSLLSRSSSGYFSFDTDRSPAPMSCDKSTQTPSPPCQAFNHYLSAMASIRQSQEEPEDLRPEIRIAQELRRIGDEFNETYTRRVFANDYREAEDHPQMVILQLLRFIFRLVWRRH
notes: BimEL, mouse; GGS linker after Venus; also called ^VBimEL; ^vBimEL; source: MCF-7 and BMK-DKO, transiently transfected, in live cells; not shown: Venus, N-terminal, kept
B4: Venus-BimEL-I146Y (natural protein, mouse, UniProt O54918-1 1-196, looked up)
chain: B3 chain with I146Y
notes: BimEL, mouse; also called ^vBimEL-I146Y; source: MCF-7, transiently transfected, in live cells; not shown: Venus, N-terminal, kept
B5: Venus-BimEL-I181E (natural protein, mouse, UniProt O54918-1 1-196, looked up)
chain: B3 chain with I181E
notes: BimEL, mouse; also called ^vBimEL-I181E; source: MCF-7, transiently transfected, in live cells; not shown: Venus, N-terminal, kept
B6: Venus-BimEL-I146Y-L185E (natural protein, mouse, UniProt O54918-1 1-196, looked up)
chain: B3 chain with I146Y, L185E
notes: BimEL, mouse; also called ^vBimEL-I146Y-L185E; source: MCF-7, transiently transfected, in live cells; not shown: Venus, N-terminal, kept
B7: Venus-BimEL-V192E (natural protein, mouse, UniProt O54918-1 1-196, looked up)
chain: B3 chain with V192E
notes: BimEL, mouse; also called ^VBimEL-V192E; ^vBimEL-V192E; source: MCF-7, transiently transfected, in live cells; not shown: Venus, N-terminal, kept
B8: Venus-BimEL-L185E (natural protein, mouse, UniProt O54918-1 1-196, looked up)
chain: B3 chain with L185E
notes: BimEL, mouse; also called ^VBimEL-L185E; ^vBimEL-L185E; source: MCF-7, transiently transfected, in live cells; not shown: Venus, N-terminal, kept
B9: Venus-BimEL-I188E (natural protein, mouse, UniProt O54918-1 1-196, looked up)
chain: B3 chain with I188E
notes: BimEL, mouse; also called ^VBimEL-I188E; ^vBimEL-I188E; source: MCF-7, transiently transfected, in live cells; not shown: Venus, N-terminal, kept
B10: Venus-BimEL-CTS2A (natural protein, mouse, UniProt O54918-1 1-196, looked up)
chain: B3 chain with R186A, R190A
notes: BimEL, mouse; also called ^VBim-CTS2A; ^vBimEL-CTS2A; source: MCF-7, transiently transfected, in live cells; not shown: Venus, N-terminal, kept

target: T1, Bcl-XL single-cysteine mutant 152C, Alexa647-labelled (human, UniProt Q07817-1 1-233, Alexa 647-maleimide on the single cysteine at 152); assay: FRET or BRET; purified Alexa568-labelled BH3 protein (10 nM) and Alexa647-labelled Bcl-XL (40 nM) with liposomes, ABT-263 titrated in; 37 C, 1 h; relative displacements, not absolute affinity; details: both partners purified
T1 sequence (Q07817 other isoform, or with tags, fused parts or gaps mutant): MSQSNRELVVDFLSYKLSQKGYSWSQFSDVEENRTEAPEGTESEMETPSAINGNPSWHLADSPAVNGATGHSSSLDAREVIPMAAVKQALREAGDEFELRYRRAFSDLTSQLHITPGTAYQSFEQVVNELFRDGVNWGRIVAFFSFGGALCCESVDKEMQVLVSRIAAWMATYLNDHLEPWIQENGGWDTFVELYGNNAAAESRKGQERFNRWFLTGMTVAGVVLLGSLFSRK

IC50 of ABT-263 for displacing the pair [nM] | Binder
~200 | B1
> 4000 | B2

target: T1, Bcl-XL single-cysteine mutant 152C, …; assay: FRET or BRET; purified proteins with liposomes, protein binding (FRET) and liposome permeabilization measured at the same time, ABT-263 titrated; details: both partners purified

IC50 of ABT-263 for FRET of the pair [nM] | Binder
> 700 | B2

target: T1, Bcl-XL single-cysteine mutant 152C, …; assay: FRET or BRET; 4 nM Alexa568-labelled BimL or BimL-dCTS with increasing Alexa647-labelled Bcl-XL in samples containing mouse liver mitochondria; apparent Kd; details: both partners purified

Kd [nM] | Binder
35 ± 5 | B1
3 ± 1 | B2

target: T2, mCerulean3-Bcl-XL (human, UniProt Q07817-1 1-233); assay: FRET or BRET; FLIM-FRET in live MCF-7 cells: mCer3-Bcl-XL or mCer3-Bcl-2 stably expressed (donor), Venus-BH3 protein transiently expressed (acceptor); binding curves of FLIM-FRET efficiency against the Venus:mCer3 intensity ratio, 25 C; untreated, DMSO, 20 uM ABT-263 (18-24 h) or 1.25-20 uM A-1155463, A-1331852, ABT-263; R values interpolated at ratio 0.5 (Bcl-XL) or 0.25 (Bcl-2), ^VBad4E signal subtracted; details: partners not purified
T2 construct: Bcl-XL, human; GGS linker between mCerulean3 and Bcl-XL; also called ^CBcl-XL; ^cBcl-XL; source: MCF-7 and BMK-DKO, stably transfected clones, in live cells; not shown: mCerulean3, N-terminal, kept
T2 sequence (Q07817 whole entry): as the sequence (Q07817 other isoform, or with tags, fused parts or gaps mutant) above, with C152V counted along it

R_(ABT-263), % of FRET signal left with 20 uM ABT-263 [%] | Binder
86.3 | B3
88.7 | B4
63.9 | B5
40 | B6
70.1 | B7
41.9 | B8
51 | B9
88.8 | B10

target: T3, mCerulean3-Bcl-2 (human, UniProt P10415 1-239); assay: as above; details: partners not purified
T3 construct: Bcl-2, human; GGS linker between mCerulean3 and Bcl-2; also called ^CBcl-2; ^cBcl-2; source: MCF-7, stably transfected clone, in live cells; not shown: mCerulean3, N-terminal, kept
T3 sequence (P10415 whole entry): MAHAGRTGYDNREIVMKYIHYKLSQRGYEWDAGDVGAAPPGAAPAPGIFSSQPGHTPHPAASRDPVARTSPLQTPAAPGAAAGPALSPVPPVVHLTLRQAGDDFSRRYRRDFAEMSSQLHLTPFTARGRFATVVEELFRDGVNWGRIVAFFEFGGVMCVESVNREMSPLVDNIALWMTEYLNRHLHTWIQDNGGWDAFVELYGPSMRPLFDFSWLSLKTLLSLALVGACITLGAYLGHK

R_(ABT-263), % of FRET signal left with 20 uM ABT-263 [%] | Binder
83.1 | B3
65.3 | B4
73.3 | B5
36.9 | B6
64.8 | B7
51 | B8
63 | B9
80.7 | B10
